# Test results published in US20040258705A1, “Use of lectins to promote oligomerization of glycoproteins and antigenic molecules” (Antigenics Inc., priority 2003, published 2004).
# B1: Meth A gp96 (Bx): Meth A gp96 prepared with buffer exchange step between Con A and DEAE columns, increased Con A content (protein, UniProt P08113 22-802, looked up)
# Endoplasmin: DDEVDVDGTVEEDLGKSREGSRTDDEVVQREEEAIQLDGLNASQIRELREKSEKFAFQAEVNRMMKLIINSLYKNKEIFLRELISNASDALDKIRLISLTDENALAGNEELTVKIKCDKEKNLLHVTDTGVGMTREELVKNLGTIAKSGTSEFLNKMTEAQEDGQSTSELIGQFGVGFYSAFLVADKVIVTSKHNNDTQHIWESDSNEFSVIADPRGNTLGRGTTITLVLKEEASDYLELDTIKNLVRKYSQFINFPIYVWSSKTETVEEPLEEDEAAKEEKEESDDEAAVEEEEEEKKPKTKKVEKTVWDWELMNDIKPIWQRPSKEVEEDEYKAFYKSFSKESDDPMAYIHFTAEGEVTFKSILFVPTSAPRGLFDEYGSKKSDYIKLYVRRVFITDDFHDMMPKYLNFVKGVVDSDDLPLNVSRETLQQHKLLKVIRKKLVRKTLDMIKKIADEKYNDTFWKEFGTNIKLGVIEDHSNRTRLAKLLRFQSSHHSTDITSLDQYVERMKEKQDKIYFMAGSSRKEAESSPFVERLLKKGYEVIYLTEPVDEYCIQALPEFDGKRFQNVAKEGVKFDESEKTKESREATEKEFEPLLNWMKDKALKDKIEKAVVSQRLTESPCALVASQYGWSGNMERIMKAQAYQTGKDISTNYYASQKKTFEINPRHPLIRDMLRRIKEDEDDKTVMDLAVVLFETATLRSGYLLPDTKAYGDRIERMLRLSLNIDPEAQVEEEPEEEPEDTSEDAEDSEQDEGEEMDAGTEEEEEETEKESTEKDEL
# modifications: tumor-derived; contains Con A
# notes: Meth A gp96 prepared with buffer exchange step between Con A and DEAE columns, increased Con A content
# Assays:
# [1] = system: Meth A-specific CD4+ T cell clone 24D3 with irradiated BALB/c splenocytes; test: Meth A in vitro antigen representation assay; format: cell-based, mouse (BALB/c); conditions: Meth A gp96; versus matched preparation without buffer exchange; IL-5 ELISA
# Excerpt: Materials: irradiated BALB/c splenocytes were used as the Antigen Presenting Cells (APCs). The Meth A-specific CD4^+ T cell clone, 24D3, was used. They are restricted by the MHClI molecule I-Ed, and are specific for the antigenic peptide contained within the sequence […]. The medium used for this assay was RPMI 1640 (Gibco-BRL). […] The wild-type form of the L 1 peptide ([…]) was used as a negative control, and the mutated form of the L11 peptide ([…]) was used as the positive control.
# The resulting supernatant was further purified using Con A and DEAE chromatography.
# Re-Presentation Assay: 2×104 of Meth A specific CD4^+ T cell clones (24D3) were incubated with 5×105 of irradiated BALB/c splenic APCs in the presence of various concentration of gp96 derived from Meth A or other sources (100, 50, 25, 12.5, 6.25 μg/ml final concentration) for 48-72 hrs in the 96 well flat bottom plate in 200 μl of final volume. Wild type ribosomal protein L11 peptide and mutated ribosomal protein L11 peptide were added in replicate wells and used as a negative control or positive control respectively. After 48-72 hours of incubation at 37° C., 5% CO2, 100 μl of supernatant was taken and IL-5 production was measured by ELISA.
# Meth A cells = test: In vivo Meth A tumor inhibition (tumor protection / rejection) assay; parameters: species or system BALB/c mice; conditions: Meth A gp96, dose of 10 μg intradermally day 0 and 7; versus matched preparation without buffer exchange
# Method: In vivo Meth A growth inhibition assay: BALB/c mice (n=30/group) were immunized on day 0 and day 7 with 10 or 50 μg of gp96 intradermally in the flank. On study day 14, mice were challenged with 1×10^5 Meth A cells intradermally in a total volume of 100 μl. Growing tumors were monitored during the subsequent four weeks. All animals were euthanized on study day 41 after a final tumor measurement. Data was reported as percentage of animals that are tumor-free on study day 41. Control groups included un-immunized (diluent—negative control) and immunized with irradiated Meth A cells (positive control).
# In vivo Meth A growth inhibition assay: BALB/c mice (n=10/group) were immunized on day 0 and day 7 with 10 μg of gp96 intradermally in the flank. On study day 14, mice were challenged with 1×10^5 Meth A cells intradermally in a total volume of 100 gl. Growing tumors were monitored during the subsequent four weeks. All animals were euthanized on study day 41 after a final tumor measurement. Data was reported as percentage of animals that are tumor-free on study day 41. Control groups included un-immunized (diluent—negative control) and immunized with irradiated Meth A cells (positive control).
# (§1) In vivo Meth A growth inhibition assay: BALB/c mice (n=10/group) were immunized on day 0 and day 7 with 10 μg of gp96 intradermally in the flank. On study day 14, mice were challenged with 1×10^5 Meth A cells intradermally in a total volume of 100 μl. Growing tumors were monitored during the subsequent four weeks. All animals were euthanized on study day 41 after a final tumor measurement. Data was reported as percentage of animals that are tumor-free on study day 41. Control groups included un-immunized (diluent—negative control) and immunized with irradiated Meth A cells (positive control).
# as §1, with “with 0.3 or 3” for “with 10”, “gp96 alone or in combination with Con A” for “gp96”
molecule,measurement,setting,value
B1,in vitro activity in the Meth A representation assay,[1],higher in vitro antigen representation
same,in vivo tumor protection activity,Meth A cells,higher in vivo tumor protection activity
